From the supplement of paper PMC6757056
± gives the standard deviation of the averaged measurements.

B1: library; a variant is named by its letters at N, in order (parent)
chain: GCUGUCACCGAGAAACUGUGAAGUAUAUCUUAAACCUGGGCACUUAAAAGAUAUAUGGAGUUAGUAGUGCAACCUGCUCGGUCUGAUGAGUCCNNNNNNGGACGAAACAGC

Columns and labels:
cyclic di-GMP [1] = variants of: B1; assay: FACS-Seq fitted mean relative fluorescence mCherry/BFP without ligand (log10 relative fluorescence); HEK293T; ligand: cyclic di-GMP (c-di-GMP-II aptamer); higher = higher reporter protein expression; conditions: ligand present: no
Procedure, shortened: (§1)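 Sorting into 6 bins by mCherry/BFP followed 48 h of incubation with or without ligand. The cells were enriched HEK293T libraries lentivirally bearing an mCherry reporter with the ribozyme switch and an EF1α-BFP marker, and bin genomic DNA was PCR-amplified, barcoded and sequenced on MiSeq. Fluorescence is the fitted normal mean of the bin counts. Means were fitted on log10(mCherry/BFP), scaled to five spiked-in control ribozymes.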

cyclic di-GMP [2] = variants of: B1; assay: normalized RNA/DNA level without ligand (relative to sTRSVctl = 100) (log10 (% of sTRSVctl)); HEK293T; ligand: cyclic di-GMP (c-di-GMP-II aptamer); higher = less ribozyme self-cleavage, higher mRNA level; conditions: reporter: mCherry (pCS4076), ligand present: no
Procedure, shortened: (§2)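 Library plasmids encoding reporter-linked ribozyme switches (mCherry, or eGFP for some folinic acid experiments) were transfected into HEK293T at 4 µg per 6-well well. Ligand, when used, was added 1 h before transfection. Total RNA was extracted with EDTA 72 h later, then reverse-transcribed, amplified, barcoded and sequenced. RNA level was RNA reads over DNA reads, divided by a spiked-in non-cleaving control (or the top 25 sequences), ×100, log10; only sequences with ≥100 DNA reads were kept.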

cyclic di-GMP [3] = variants of: B1; assay: FACS-Seq fitted mean relative fluorescence mCherry/BFP with ligand (log10 relative fluorescence); HEK293T; ligand: cyclic di-GMP (c-di-GMP-II aptamer); ligand concentration (+) FACS-Seq: 1 mM; higher = higher reporter protein expression; conditions: ligand present: yes
Procedure, shortened: as §1

cyclic di-GMP [4] = variants of: B1; assay: normalized RNA/DNA level with ligand (relative to sTRSVctl = 100) (log10 (% of sTRSVctl)); HEK293T; ligand: cyclic di-GMP (c-di-GMP-II aptamer); ligand concentration (+) RNA-Seq: 1 mM; higher = less ribozyme self-cleavage, higher mRNA level; conditions: reporter: mCherry (pCS4076), ligand present: yes
Procedure, shortened: as §2

| Variant | FACS-Seq fitted mean (log10) (cyclic di-GMP [1]) | normalized RNA/DNA level without ligand (log10) (cyclic di-GMP [2]) | FACS-Seq fitted mean (log10) (cyclic di-GMP [3]) | normalized RNA/DNA level with ligand (log10) (cyclic di-GMP [4]) |
| --- | --- | --- | --- | --- |
| CGCUAC | -0.231 ± 0.14 | 1.65 ± 0.021 | 0.045 ± 0.046 | 1.81 ± 0.11 |
| CGCUAA | -0.647 ± 0.045 | 1.22 ± 0.066 | -0.386 ± 0.093 | 1.37 ± 0.059 |
| CGCUAU | -1.02 ± 0.037 | 1.41 ± 0.12 | -0.866 ± 0.11 | 1.64 ± 0.094 |
| AGCAGA | -0.373 ± 0.045 | 1.564 ± 0.0029 | -0.1 ± 0.017 | 1.69 ± 0.19 |
| AGCAGC | -0.317 ± 0.18 | 1.72 ± 0.048 | -0.109 ± 0.057 | 1.86 ± 0.069 |
| CGCUGA | -0.177 ± 0.072 | 1.53 ± 0.057 | 0.0499 ± 0.0086 | 1.72 ± 0.067 |
| CGCUGU | 0.3 ± 0.092 | 1.776 ± 0.0024 | 0.433 ± 0.014 | 1.9 ± 0.13 |
| ACUUAG | -0.25 ± 0.093 | 1.59 ± 0.024 | 0.0154 ± 0.058 | 1.75 ± 0.096 |
| UGAUUU | 0.198 ± 0.26 | 1.69 ± 0.047 | 0.343 ± 0.1 | 1.86 ± 0.16 |
| AGAUUA | -0.549 ± 0.084 | 1.49 ± 0.078 | -0.245 ± 0.019 | 1.69 ± 0.15 |
| CCUUCA | -0.388 ± 0.025 | 1.6013 ± 0.00017 | -0.00437 ± 0.075 | 1.72 ± 0.15 |
| CCUUCU | -0.619 ± 0.0079 | 1.6166 ± 0.0015 | -0.341 ± 0.038 | 1.8 ± 0.063 |
| CGAGCG | -0.783 ± 0.013 | 1.81 ± 0.023 | -0.5474 ± 0.004 | 1.9 ± 0.12 |
| CGCCUA | -0.608 ± 0.088 | 1.37 ± 0.12 | -0.414 ± 0.049 | 1.58 ± 0.12 |
| CGCCUC | 0.0848 ± 0.15 | 1.713 ± 0.011 | 0.399 ± 0.0065 | 1.85 ± 0.067 |
| CGCCUU | -0.439 ± 0.021 | 1.5321 ± 0.00037 | -0.126 ± 0.059 | 1.72 ± 0.13 |
| CGAGAA | 0.00961 ± 0.085 | 1.35 ± 0.15 | 0.126 ± 0.031 | 1.55 ± 0.037 |
| CGAGAU | -0.412 ± 0.057 | 1.52 ± 0.064 | -0.0533 ± 0.042 | 1.76 ± 0.11 |

| Variant | FACS-Seq fitted mean (log10) (cyclic di-GMP [1]) | normalized RNA/DNA level without ligand (log10) (cyclic di-GMP [2]) | FACS-Seq fitted mean (log10) (cyclic di-GMP [3]) | normalized RNA/DNA level with ligand (log10) (cyclic di-GMP [4]) |
| --- | --- | --- | --- | --- |
| ACUGGU | -0.466 ± 0.02 | 1.52 ± 0.024 | -0.166 ± 0.029 | 1.76 ± 0.079 |
| ACUGGA | -0.72 ± 0.0076 | 1.39 ± 0.091 | -0.5113 ± 0.0047 | 1.59 ± 0.087 |
| ACUGGG | -0.467 ± 0.024 | 1.58 ± 0.07 | -0.104 ± 0.015 | 1.69 ± 0.11 |
| AGCACU | 0.129 ± 0.16 | 1.7 ± 0.023 | 0.4 ± 0.012 | 1.82 ± 0.12 |
| AGCACG | -0.192 ± 0.0049 | 1.61 ± 0.036 | 0.065 ± 0.026 | 1.77 ± 0.13 |
| GGACCC | 0.129 ± 0.17 | 1.86 ± 0.022 | 0.32 ± 0.061 | 1.93 ± 0.086 |
| CGCCAA | -0.26 ± 0.2 | 1.37 ± 0.045 | 0.0764 ± 0.12 | 1.56 ± 0.15 |
| CGCCAC | -0.0985 ± 0.057 | 1.69 ± 0.027 | 0.173 ± 0.026 | 1.84 ± 0.12 |
| CGCCAU | -0.339 ± 0.042 | 1.5 ± 0.12 | -0.0661 ± 0.036 | 1.69 ± 0.078 |
| CGCGUA | -0.52 ± 0.06 | 1.45 ± 0.16 | -0.224 ± 0.062 | 1.638 ± 0.011 |
| ACUUUU | -0.0638 ± 0.052 | 1.6 ± 0.053 | 0.272 ± 0.091 | 1.8 ± 0.095 |
| ACUUUA | -1.11 ± 0.037 | 1.59 ± 0.044 | -0.989 ± 0.12 | 1.76 ± 0.067 |
| GCUUCU | -0.15612 ± 8.5e-05 | 1.74 ± 0.019 | 0.0598 ± 0.018 | 1.87 ± 0.11 |
| GCUUCA | -0.32 ± 0.093 | 1.668 ± 0.013 | 0.00326 ± 0.00018 | 1.81 ± 0.11 |
| CGACGA | -0.45 ± 0.042 | 1.5 ± 0.094 | -0.105 ± 0.043 | 1.71 ± 0.071 |
| UGCGUU | -0.0716 ± 0.19 | 1.691 ± 0.0015 | 0.15 ± 0.093 | 1.9 ± 0.096 |
| UGCAUC | -1.13 ± 0.034 | 1.78 ± 0.026 | -0.952 ± 0.082 | 1.87 ± 0.099 |
| UGCAUG | -0.116 ± 0.0019 | 1.734 ± 0.0063 | 0.0785 ± 0.1 | 1.85 ± 0.13 |
